Assay [1] addresses T1, N-SH2 domain of SHP2 (residues 2–111) (human, UniProt Q06124 2-111).
T1 chain: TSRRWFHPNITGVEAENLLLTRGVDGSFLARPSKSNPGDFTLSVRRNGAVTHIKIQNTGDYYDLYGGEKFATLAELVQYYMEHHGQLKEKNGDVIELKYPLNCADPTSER
Briefly: FP.

Assay [2] addresses T1, N-SH2 domain of SHP2 (residues 2–111). The assay can be described thus: FP.
For assay [3] the target is unchanged. Briefly: FP; displacement of CF-P9W5.
Assay [4] shares this target. Briefly: FP; displacement of CF-P9W5.

[ ]: non-standard residue; d: D form. pY = N[C@@H](Cc1ccc(OP(=O)(O)O)cc1)C(=O)O

As a reminder, the EC50 is the concentration at which the effect is half-maximal. As a reminder, the Kd is the free concentration of one partner at which half of the binding sites on the other are occupied at equilibrium, for simple one-to-one binding. Higher therefore signals weaker binding.

B1: P8E4W5, P8 analogue with E at position +4 and W at position +5 (peptide)
chain: Ac-LN[pY]IDLEW-NH2
SMILES: CC[C@H](C)[C@H](NC(=O)[C@H](Cc1ccc(OP(=O)(O)O)cc1)NC(=O)[C@H](CC(N)=O)NC(=O)[C@H](CC(C)C)NC(C)=O)C(=O)N[C@@H](CC(=O)O)C(=O)N[C@@H](CC(C)C)C(=O)N[C@@H](CCC(=O)O)C(=O)N[C@@H](Cc1c[nH]c2ccccc12)C(N)=O
Take B1: in assay [1], the EC50 turned out to be 11 nM. The molecule further had a Kd in assay [2] of 4 nM.

B2: P8F5, P8 analogue with F at position +5 (peptide)
chain: Ac-LN[pY]IDLDF-NH2
SMILES: CC[C@H](C)[C@H](NC(=O)[C@H](Cc1ccc(OP(=O)(O)O)cc1)NC(=O)[C@H](CC(N)=O)NC(=O)[C@H](CC(C)C)NC(C)=O)C(=O)N[C@@H](CC(=O)O)C(=O)N[C@@H](CC(C)C)C(=O)N[C@@H](CC(=O)O)C(=O)N[C@@H](Cc1ccccc1)C(N)=O
In turn, B2 yielded an EC50 in assay [1] of 16 nM. Moreover, in assay [2], the Kd was determined as 7 nM.

B3: P8, unlabeled IRS-1 pY1172 peptide, residues −2 to +5 (peptide)
peptide: Ac-LN[pY]IDLDL-NH2
SMILES: CC[C@H](C)[C@H](NC(=O)[C@H](Cc1ccc(OP(=O)(O)O)cc1)NC(=O)[C@H](CC(N)=O)NC(=O)[C@H](CC(C)C)NC(C)=O)C(=O)N[C@@H](CC(=O)O)C(=O)N[C@@H](CC(C)C)C(=O)N[C@@H](CC(=O)O)C(=O)N[C@@H](CC(C)C)C(N)=O
Molecule B3 registered an EC50 in assay [3] of 47 nM. In assay [4], binding was put at a Kd of 22 nM.

B4: P8W5, P8 analogue with W at position +5 (peptide)
chain: Ac-LN[pY]IDLDW-NH2
For B4, the EC50 in assay [1] came out at 5.4 nM.

For the origin of these results see paper PMC8591604 (2021).
